Assay results: publication PMC9582512
pKd: −log10 of the molar value.

molecular target: human recombinant biotinylated FcγRIIb (CD32b) (human) (UniProt P31994); assay: BLI
Sequence (P31994 43-217): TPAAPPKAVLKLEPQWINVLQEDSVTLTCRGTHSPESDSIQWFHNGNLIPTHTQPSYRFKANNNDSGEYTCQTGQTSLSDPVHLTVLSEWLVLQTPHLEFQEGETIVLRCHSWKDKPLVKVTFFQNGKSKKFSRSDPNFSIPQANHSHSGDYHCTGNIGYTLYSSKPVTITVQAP

Sequence of recombinant anti-Fel d 1 monoclonal antibody F127, human IgG4 format (P01861 whole entry, looked up): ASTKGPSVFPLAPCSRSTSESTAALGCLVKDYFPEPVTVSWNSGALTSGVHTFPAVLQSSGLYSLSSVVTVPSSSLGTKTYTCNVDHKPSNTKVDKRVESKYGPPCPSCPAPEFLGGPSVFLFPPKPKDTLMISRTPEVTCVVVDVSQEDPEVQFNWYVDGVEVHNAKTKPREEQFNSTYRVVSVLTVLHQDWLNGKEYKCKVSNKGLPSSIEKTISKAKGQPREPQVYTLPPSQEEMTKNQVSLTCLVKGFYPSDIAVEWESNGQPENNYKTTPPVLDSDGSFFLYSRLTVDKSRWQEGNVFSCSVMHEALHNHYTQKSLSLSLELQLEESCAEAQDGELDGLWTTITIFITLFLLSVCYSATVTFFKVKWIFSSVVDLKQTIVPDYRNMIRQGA
Sequence of native human IgG4 (P01861 whole entry, looked up): as above
Sequence of recombinant anti-Fel d 1 monoclonal antibody G078, human IgG4 format (P01861 whole entry, looked up): as above
Sequence of recombinant anti-Fel d 1 monoclonal antibody A044, human IgG4 format (P01861 whole entry, looked up): as above

koff [s⁻¹] | Substance
0.00126 | recombinant anti-Fel d 1 monoclonal antibody F127, human IgG4 format (from UniProt P01861)

molecular target: human recombinant biotinylated FcγRIIb (CD32b) (human) (UniProt P31994); assay: BLI; remark: another data set of the same source

Substance | pKd | koff [s⁻¹]
recombinant anti-Fel d 1 monoclonal antibody A044, human IgG1 format (from UniProt P01857) | 7.74 | –
recombinant anti-Fel d 1 monoclonal antibody G078, human IgG4 format (from UniProt P01861) | 7.47 | 0.0016
recombinant anti-Fel d 1 monoclonal antibody F127, human IgG1 format (from UniProt P01857) | 7.57 | –

The remaining substances from weak to strong by pKd, led by results:

pKd | koff [s⁻¹] | Substance
7.51 | 0.002 | native human IgG4 (from UniProt P01861)
7.57 | 0.0014 | recombinant anti-Fel d 1 monoclonal antibody F127, human IgG4 format (from UniProt P01861)
7.74 | 0.00081 | recombinant anti-Fel d 1 monoclonal antibody A044, human IgG4 format (from UniProt P01861)
